Molecular target: cardiac troponin T (cTn-T) (UniProt P45379)
Assay: electrochemical aptasensor
Conditions: thiol (end not stated); Protein in 10 mM PBS pH 7.4, 30 min on BSA-blocked electrode, PBS wash; read in 0.10 M KCl with 5.0 mM K3/K4[Fe(CN)6]; temperature not stated

CGTGCAGTACGCCAACCTTTCTCATGCGCTGCCCCTCTTA [cTn-I aptamer (Jo et al.)]
binding signal (% normalized response): < 5

Source: publication PMC9599711
